# Measured values from patent US20230357348A1 (AstraZeneca / MedImmune, published 2023).
# Starred links: 1 amine or outer side, 2 acyl side, 3 side chain; linkers in the order of their positions; H or OH if unused. Non-standard residues stand in square brackets, D forms with d. Groups on a side chain read outwards from the residue. No end group written: not given here. *: point of attachment. C20 diacid = O=C(O)CCCCCCCCCCCCCCCCCCC(=O)*; C18 diacid = O=C(O)CCCCCCCCCCCCCCCCC(=O)*; γGlu = O=C(O)[C@H](CCC(=O)[*:2])N[*:1]; αMeF = C[C@](N)(Cc1ccccc1)C(=O)O; AEEA = NCCOCCOCC(=O)O; Aib = CC(C)(N)C(=O)O
# B1: Peptide 410 (peptide)
# peptide: H[Aib]QGTFTSDVSK[αMeF]LDTK([AEEA-AEEA-γGlu-C20 diacid])RARDFVAWLL[Aib]TE-OH
# modifications: N-terminus assumed
# SMILES: CC(C)C[C@H](NC(=O)[C@H](Cc1c[nH]c2ccccc12)NC(=O)[C@H](C)NC(=O)[C@@H](NC(=O)[C@H](Cc1ccccc1)NC(=O)[C@H](CC(=O)O)NC(=O)[C@H](CCCNC(=N)N)NC(=O)[C@H](C)NC(=O)[C@H](CCCNC(=N)N)NC(=O)[C@H](CCCCNC(=O)COCCOCCNC(=O)COCCOCCNC(=O)CC[C@H](NC(=O)CCCCCCCCCCCCCCCCCCC(=O)O)C(=O)O)NC(=O)[C@@H](NC(=O)[C@H](CC(=O)O)NC(=O)[C@H](CC(C)C)NC(=O)[C@](C)(Cc1ccccc1)NC(=O)[C@H](CCCCN)NC(=O)[C@H](CO)NC(=O)[C@@H](NC(=O)[C@H](CC(=O)O)NC(=O)[C@H](CO)NC(=O)[C@@H](NC(=O)[C@H](Cc1ccccc1)NC(=O)[C@@H](NC(=O)CNC(=O)[C@H](CCC(N)=O)NC(=O)C(C)(C)NC(=O)[C@@H](N)Cc1c[nH]cn1)[C@@H](C)O)[C@@H](C)O)C(C)C)[C@@H](C)O)C(C)C)C(=O)N[C@@H](CC(C)C)C(=O)NC(C)(C)C(=O)N[C@H](C(=O)N[C@@H](CCC(=O)O)C(=O)O)[C@@H](C)O
# B2: Peptide 409 (peptide)
# peptide: H[Aib]QGTFTSDVSK[αMeF]LDTK([AEEA-AEEA-γGlu-C18 diacid])RARDFVAWLL[Aib]TE-OH
# modifications: N-terminus assumed
# SMILES: CC(C)C[C@H](NC(=O)[C@H](Cc1c[nH]c2ccccc12)NC(=O)[C@H](C)NC(=O)[C@@H](NC(=O)[C@H](Cc1ccccc1)NC(=O)[C@H](CC(=O)O)NC(=O)[C@H](CCCNC(=N)N)NC(=O)[C@H](C)NC(=O)[C@H](CCCNC(=N)N)NC(=O)[C@H](CCCCNC(=O)COCCOCCNC(=O)COCCOCCNC(=O)CC[C@H](NC(=O)CCCCCCCCCCCCCCCCC(=O)O)C(=O)O)NC(=O)[C@@H](NC(=O)[C@H](CC(=O)O)NC(=O)[C@H](CC(C)C)NC(=O)[C@](C)(Cc1ccccc1)NC(=O)[C@H](CCCCN)NC(=O)[C@H](CO)NC(=O)[C@@H](NC(=O)[C@H](CC(=O)O)NC(=O)[C@H](CO)NC(=O)[C@@H](NC(=O)[C@H](Cc1ccccc1)NC(=O)[C@@H](NC(=O)CNC(=O)[C@H](CCC(N)=O)NC(=O)C(C)(C)NC(=O)[C@@H](N)Cc1c[nH]cn1)[C@@H](C)O)[C@@H](C)O)C(C)C)[C@@H](C)O)C(C)C)C(=O)N[C@@H](CC(C)C)C(=O)NC(C)(C)C(=O)N[C@H](C(=O)N[C@@H](CCC(=O)O)C(=O)O)[C@@H](C)O
# B3: Peptide 407 (peptide)
# peptide: H[Aib]QGTFTSDVSK[αMeF]LDTK([AEEA-AEEA-γGlu-C20 diacid])RAQDFVRWLEA[Aib]G-OH
# modifications: N-terminus assumed
# SMILES: CC(C)C[C@H](NC(=O)[C@H](Cc1c[nH]c2ccccc12)NC(=O)[C@H](CCCNC(=N)N)NC(=O)[C@@H](NC(=O)[C@H](Cc1ccccc1)NC(=O)[C@H](CC(=O)O)NC(=O)[C@H](CCC(N)=O)NC(=O)[C@H](C)NC(=O)[C@H](CCCNC(=N)N)NC(=O)[C@H](CCCCNC(=O)COCCOCCNC(=O)COCCOCCNC(=O)CC[C@H](NC(=O)CCCCCCCCCCCCCCCCCCC(=O)O)C(=O)O)NC(=O)[C@@H](NC(=O)[C@H](CC(=O)O)NC(=O)[C@H](CC(C)C)NC(=O)[C@](C)(Cc1ccccc1)NC(=O)[C@H](CCCCN)NC(=O)[C@H](CO)NC(=O)[C@@H](NC(=O)[C@H](CC(=O)O)NC(=O)[C@H](CO)NC(=O)[C@@H](NC(=O)[C@H](Cc1ccccc1)NC(=O)[C@@H](NC(=O)CNC(=O)[C@H](CCC(N)=O)NC(=O)C(C)(C)NC(=O)[C@@H](N)Cc1c[nH]cn1)[C@@H](C)O)[C@@H](C)O)C(C)C)[C@@H](C)O)C(C)C)C(=O)N[C@@H](CCC(=O)O)C(=O)N[C@@H](C)C(=O)NC(C)(C)C(=O)NCC(=O)O
# B4: Peptide 408 (peptide)
# peptide: H[Aib]QGTFTSDVSK[αMeF]LDTK([AEEA-AEEA-γGlu-γGlu-C20 diacid])RAQDFVRWLEA[Aib]G-OH
# modifications: N-terminus assumed
# SMILES: CC(C)C[C@H](NC(=O)[C@H](Cc1c[nH]c2ccccc12)NC(=O)[C@H](CCCNC(=N)N)NC(=O)[C@@H](NC(=O)[C@H](Cc1ccccc1)NC(=O)[C@H](CC(=O)O)NC(=O)[C@H](CCC(N)=O)NC(=O)[C@H](C)NC(=O)[C@H](CCCNC(=N)N)NC(=O)[C@H](CCCCNC(=O)COCCOCCNC(=O)COCCOCCNC(=O)CC[C@H](NC(=O)CC[C@H](NC(=O)CCCCCCCCCCCCCCCCCCC(=O)O)C(=O)O)C(=O)O)NC(=O)[C@@H](NC(=O)[C@H](CC(=O)O)NC(=O)[C@H](CC(C)C)NC(=O)[C@](C)(Cc1ccccc1)NC(=O)[C@H](CCCCN)NC(=O)[C@H](CO)NC(=O)[C@@H](NC(=O)[C@H](CC(=O)O)NC(=O)[C@H](CO)NC(=O)[C@@H](NC(=O)[C@H](Cc1ccccc1)NC(=O)[C@@H](NC(=O)CNC(=O)[C@H](CCC(N)=O)NC(=O)C(C)(C)NC(=O)[C@@H](N)Cc1c[nH]cn1)[C@@H](C)O)[C@@H](C)O)C(C)C)[C@@H](C)O)C(C)C)C(=O)N[C@@H](CCC(=O)O)C(=O)N[C@@H](C)C(=O)NC(C)(C)C(=O)NCC(=O)O
# B5: Peptide 463 (peptide)
# peptide: H[Aib]QGTFTSDVSK[αMeF]LDSK([AEEA-AEEA-γGlu-γGlu-C18 diacid])RAQDFVQWLL[Aib]T-NH2
# modifications: N-terminus assumed
# SMILES: CC(C)C[C@H](NC(=O)[C@H](Cc1c[nH]c2ccccc12)NC(=O)[C@H](CCC(N)=O)NC(=O)[C@@H](NC(=O)[C@H](Cc1ccccc1)NC(=O)[C@H](CC(=O)O)NC(=O)[C@H](CCC(N)=O)NC(=O)[C@H](C)NC(=O)[C@H](CCCNC(=N)N)NC(=O)[C@H](CCCCNC(=O)COCCOCCNC(=O)COCCOCCNC(=O)CC[C@H](NC(=O)CC[C@H](NC(=O)CCCCCCCCCCCCCCCCC(=O)O)C(=O)O)C(=O)O)NC(=O)[C@H](CO)NC(=O)[C@H](CC(=O)O)NC(=O)[C@H](CC(C)C)NC(=O)[C@](C)(Cc1ccccc1)NC(=O)[C@H](CCCCN)NC(=O)[C@H](CO)NC(=O)[C@@H](NC(=O)[C@H](CC(=O)O)NC(=O)[C@H](CO)NC(=O)[C@@H](NC(=O)[C@H](Cc1ccccc1)NC(=O)[C@@H](NC(=O)CNC(=O)[C@H](CCC(N)=O)NC(=O)C(C)(C)NC(=O)[C@@H](N)Cc1c[nH]cn1)[C@@H](C)O)[C@@H](C)O)C(C)C)C(C)C)C(=O)N[C@@H](CC(C)C)C(=O)NC(C)(C)C(=O)N[C@H](C(N)=O)[C@@H](C)O
# B6: Peptide 461 (peptide)
# peptide: H[Aib]QGTFTSDVSK[αMeF]LDRK([AEEA-AEEA-γGlu-C18 diacid])RAQDFVRWLLAE-NH2
# modifications: N-terminus assumed
# SMILES: CC(C)C[C@H](NC(=O)[C@H](CC(C)C)NC(=O)[C@H](Cc1c[nH]c2ccccc12)NC(=O)[C@H](CCCNC(=N)N)NC(=O)[C@@H](NC(=O)[C@H](Cc1ccccc1)NC(=O)[C@H](CC(=O)O)NC(=O)[C@H](CCC(N)=O)NC(=O)[C@H](C)NC(=O)[C@H](CCCNC(=N)N)NC(=O)[C@H](CCCCNC(=O)COCCOCCNC(=O)COCCOCCNC(=O)CC[C@H](NC(=O)CCCCCCCCCCCCCCCCC(=O)O)C(=O)O)NC(=O)[C@H](CCCNC(=N)N)NC(=O)[C@H](CC(=O)O)NC(=O)[C@H](CC(C)C)NC(=O)[C@](C)(Cc1ccccc1)NC(=O)[C@H](CCCCN)NC(=O)[C@H](CO)NC(=O)[C@@H](NC(=O)[C@H](CC(=O)O)NC(=O)[C@H](CO)NC(=O)[C@@H](NC(=O)[C@H](Cc1ccccc1)NC(=O)[C@@H](NC(=O)CNC(=O)[C@H](CCC(N)=O)NC(=O)C(C)(C)NC(=O)[C@@H](N)Cc1c[nH]cn1)[C@@H](C)O)[C@@H](C)O)C(C)C)C(C)C)C(=O)N[C@@H](C)C(=O)N[C@@H](CCC(=O)O)C(N)=O
# B7: Peptide 140 (peptide)
# peptide: H[Aib]QGTFTSDVSK[αMeF]LDTK([AEEA-AEEA-γGlu-C18 diacid])RAQDFVRWLLE[Aib]G-OH
# modifications: N-terminus assumed
# SMILES: CC(C)C[C@H](NC(=O)[C@H](Cc1c[nH]c2ccccc12)NC(=O)[C@H](CCCNC(=N)N)NC(=O)[C@@H](NC(=O)[C@H](Cc1ccccc1)NC(=O)[C@H](CC(=O)O)NC(=O)[C@H](CCC(N)=O)NC(=O)[C@H](C)NC(=O)[C@H](CCCNC(=N)N)NC(=O)[C@H](CCCCNC(=O)COCCOCCNC(=O)COCCOCCNC(=O)CC[C@H](NC(=O)CCCCCCCCCCCCCCCCC(=O)O)C(=O)O)NC(=O)[C@@H](NC(=O)[C@H](CC(=O)O)NC(=O)[C@H](CC(C)C)NC(=O)[C@](C)(Cc1ccccc1)NC(=O)[C@H](CCCCN)NC(=O)[C@H](CO)NC(=O)[C@@H](NC(=O)[C@H](CC(=O)O)NC(=O)[C@H](CO)NC(=O)[C@@H](NC(=O)[C@H](Cc1ccccc1)NC(=O)[C@@H](NC(=O)CNC(=O)[C@H](CCC(N)=O)NC(=O)C(C)(C)NC(=O)[C@@H](N)Cc1c[nH]cn1)[C@@H](C)O)[C@@H](C)O)C(C)C)[C@@H](C)O)C(C)C)C(=O)N[C@@H](CC(C)C)C(=O)N[C@@H](CCC(=O)O)C(=O)NC(C)(C)C(=O)NCC(=O)O
# B8: Peptide 458 (peptide)
# peptide: H[Aib]QGTFTSDVSK[αMeF]LDTK([AEEA-AEEA-γGlu-γGlu-C20 diacid])RARDFVQWLLE[Aib]G-NH2
# Target: human GLP-1 receptor (hGLP-1R) (human, UniProt P43220 24-463)
# Assay: cell-based or functional assay
row,hGLP-1R EC50 (pM),Binder
1,78,B1
2,22.7,B2
3,209,B3
4,370,B4
5,274,B5
6,167,B6
7,22.7,B7

# Target: human glucagon receptor (hGCGR) (human, UniProt P47871 26-477)
# Assay: cell-based or functional assay
# Chain of human glucagon receptor (hGCGR) (P47871 26-477): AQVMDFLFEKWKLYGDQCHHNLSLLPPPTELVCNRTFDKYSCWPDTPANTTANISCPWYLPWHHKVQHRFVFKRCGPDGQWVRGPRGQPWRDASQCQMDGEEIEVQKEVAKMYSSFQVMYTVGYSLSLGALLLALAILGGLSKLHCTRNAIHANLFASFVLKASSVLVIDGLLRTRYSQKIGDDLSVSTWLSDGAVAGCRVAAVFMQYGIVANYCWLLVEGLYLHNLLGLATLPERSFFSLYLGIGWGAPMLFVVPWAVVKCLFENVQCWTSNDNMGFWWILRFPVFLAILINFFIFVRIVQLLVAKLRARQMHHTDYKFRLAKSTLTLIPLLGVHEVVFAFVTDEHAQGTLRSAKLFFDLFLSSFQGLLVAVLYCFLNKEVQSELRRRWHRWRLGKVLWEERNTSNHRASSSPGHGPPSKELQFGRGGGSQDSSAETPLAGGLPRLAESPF
row,hGluc-R EC50 (pM),Binder
1,455,B1
2,203,B2
3,462,B3
4,828,B4
5,385,B8
